# Laboratory results taken from patent US20200347144A1 (SHANGHAI HYAMAB BIOTECH, published 2020).
# Numbering of substitutions follows the chain as printed.
# T1: mouse 4-1BB protein (extracellular domain) (mouse, UniProt P20334 24-187)
# T1 construct: extracellular domain; also called mouse 4-1BB-his; mouse 4-1BB-hFc protein
# T1 sequence (looked up): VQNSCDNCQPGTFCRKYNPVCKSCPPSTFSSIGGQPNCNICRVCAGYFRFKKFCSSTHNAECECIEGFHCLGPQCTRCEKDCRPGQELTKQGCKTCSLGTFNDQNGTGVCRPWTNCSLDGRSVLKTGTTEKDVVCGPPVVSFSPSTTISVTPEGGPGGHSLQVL
# B1: 258F5A8 (antibody, V domains shown)
# VH: QVQLVESGGGVVQPGRSLRLSCAASGFTFSSYGMHWVRQAPGKGLEWVAVIWYDGSNKYYADSVKGRFNISRDNSKNTLYLQMNSLRAEDTAVYYCARGPYLYSSGWYDYYYYGMDVWGQGTTVTVSS
# VL: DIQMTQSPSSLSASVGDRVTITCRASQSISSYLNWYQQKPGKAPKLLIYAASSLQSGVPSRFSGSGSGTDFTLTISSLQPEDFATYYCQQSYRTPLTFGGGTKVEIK
# B2: 259G10E11 (antibody, V domains shown)
# VH: B1 VH with N69T
# VL: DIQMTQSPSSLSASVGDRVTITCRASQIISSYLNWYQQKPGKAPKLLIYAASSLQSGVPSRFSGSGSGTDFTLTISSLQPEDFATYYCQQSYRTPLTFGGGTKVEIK
# B3: 57B3D10 (antibody, V domains shown)
# VH: QVQLQESGPGLVKPSETLSLTCTVSGGSISSYYWSWIRQPPGKGLEWIGYIYYSGSTNYNPSLKSRVTISVDTSKSQFSLKLTSVTAADTAVYYCAKDSDYYGSGSYSYWYFDLWGRGTLVTVSS
# VL: EIVMTQSPATLSVSPGERATLSCRASQSVSSNLAWYQQKPGQAPRLLIYGASTRAPGIPARFSGSGSGTEFTLTISSLQSEDFAVYYCQQYNNWPLTFGGGTKVEIK
# notes: also called 4-1BB fully human antibody 57B3D10
# B4: 119B6G5 (antibody, V domains shown)
# VH: EVQLLESGGGLVQPGGSLRLSCAASGFTFSNYAMSWVRQGPGKGLEWVSTIIGSGDSTYYTDSVKGRFTISRDNSKNTLFLQMNSLRAEDTAVYYCARDKSGWYYFDYWGQGTLVTVSS
# VL: DIQMTQSPSTLSASVGDRVTITCRASQSISNWLAWYQQKPGKAPKLLIYKASSLESGVPSRFSGSGSGTEFTLTISSLQPDDFATYYCQQYNDYFPITFGQGTRLEIK
# B5: 263A11E3 (antibody, V domains shown)
# VH: QVQLQESGPGLVKPSETLSLTCAVSGYSISSGYYWGWIRQPPGKGLEWIGSIYHSGSTSYNPSLRSRVTISVDTSKNQFSLKLSSVTAADTAVYYCARDAGGFDYWGQGTLVTVSS
# VL: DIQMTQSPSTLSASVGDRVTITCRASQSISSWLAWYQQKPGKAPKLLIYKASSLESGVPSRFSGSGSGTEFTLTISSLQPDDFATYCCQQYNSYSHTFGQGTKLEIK
# B6: 182A5B3 (antibody, V domains shown)
# VH: QVQLVQSGAEVKKPGASVKVSCKASGYTFTSYDINWVRQATGQGLEWMGWMNPNSGNTGYVQKFQGRVTMTRNTSISTAYMELSSLRSEDTAVYYCARETGPFDYWGQGTLVTVSS
# VL: not shown
# B7: 23G3B8 (antibody, V domains shown)
# VH: QVQLQESGPGLVKPSETLSLTCAVSAYSISSGYYWGWIRQPPGKGLEWIGSIFHSGSNYYNPSLKSRVTISVDPSKNQFSLKLSSVTVADTAVYYCARESSGYNCFDYWGQGTLVTVSS
# VL: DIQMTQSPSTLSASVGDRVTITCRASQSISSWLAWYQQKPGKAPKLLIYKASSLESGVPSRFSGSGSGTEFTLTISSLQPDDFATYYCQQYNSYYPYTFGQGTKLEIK
# B8: 289B6G6 (antibody, V domains shown)
# VH: QVQLQESGPGLVRPSETLSLTCAVSGYSISSGYYWGWIRQPPGKGLEWIGSIFHSGNTYYNPSLKSRVIVSGDTSKNQFSLKLSSVTAADTAVYYCTRESSGFNVFDIWGQGTMVTVSS
# VL: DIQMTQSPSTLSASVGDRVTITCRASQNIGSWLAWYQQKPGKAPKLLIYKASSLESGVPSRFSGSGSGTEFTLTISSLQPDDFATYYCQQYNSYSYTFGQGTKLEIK
# B9: 170D7F2 (antibody, V domains shown)
# VH: B6 VH with V61A
# VL: DIQMTQSPSSLSASVGDRVTITCRASQRINNYLNWYQQKPGKAPKLLIYGASSLQSGVPSRFSGSGSGTDFTLTISSLQPEDFATYYCQQSYSTPFTFGPGTKVDIK
# B10: 172E3E3 (antibody, V domains shown)
# VH: QVQLQESGPGLVKPSGTLSLTCAVSGGSISSSNWWSWVRQPPGKGLEWIGEIYHSGSTNYNPSLKSRVTISVDKSKNQLSLNLSSVTAADTAVYYCARQGGVAGTLYWYFDLWGRGTLVTVSS
# VL: DIVMTQSPLSLPVTPGEPASISCRSSQGLLHSNGYNYLDWYLQKPGQSPQLLIYLGSNRASGVPDRFIGSGSGTDFTLKIRRVEAEDVGVYYCMQVLQTPWTFGQGTKVEIK
# B11: 118F3A2 (antibody, V domains shown)
# VH: QVQLQQWGAGLLKPSETLSLTCGVYGGSFSTNYWSWIRQSPGKGLEWIGEINHSGNTEYNPSLKSRLTISIDTSKNQFSLKLTSVTAADTAVYYCARMGYHSPSFDFWGQGVLVTVSS
# VL: KIVMTQSPATLSVSPGERATLPCRVSQGIGSNLAWYQQKPGQAPRLLIYGASTRATGVPARFSGSGSGSEFTLTISSLQSEDLALYYCQQYNNWPLTFGGGTKVEIK
# Molecular target: T2, monkey 4-1BB-his protein (monkey)
# T2 construct: extracellular domain; Bought protein; also called extracellular domain of monkey-derived 4-1BB protein
# Assay: ELISA, coated monkey 4-1BB-his; Ab 10 ug/ml
# Protocol: (§1) The purified immunogen A (4-1BB-hFc), monkey 4-1BB-his, and mouse 4-1BB-his obtained in Example 1 [for the preparation method, see step 1 of Example 1, preparation of immunogen A], of which the extracellular domain of monkey-derived 4-1BB protein (purchased from ACRO biosystems), the extracellular domain of mouse 4-1BB protein (purchased from sino biological) or other immune detection point proteins respectively were diluted with PBS to a final concentration of 1.0 μg/mL, then added with […] per well to 96-well ELISA plate. It was sealed with plastic film and incubated at 4° C. overnight. The next day, the plate was washed twice with the plate-washing solution [PBS containing 0.01% (v/v) Tween20] and blocking solution [PBS containing 0.01% (v/v) Tween 20 and 1% (v/v) BSA] was added and blocked at room temperature for 2 hours. The blocking solution was discarded and 100 μl of the purified 4-1BB antibody obtained in Example 2 was added per well. After incubated at 37° C. for 2 hours, the plate was washed 3 times with a plate-washing solution [PBS containing 0.01% (v/v) Tween20]. A secondary antibody (purchased from Sigma) labeled with HRP (horseradish peroxidase) was added, and after incubated at 37° C. for 2 hours, the plate was washed 3 times with a plate-washing solution [PBS containing 0.01% (v/v) Tween20]. 100 μl of TMB substrate was added per well. After incubated for 30 minutes at room temperature, 100 μl of stop buffer (1.0N HCl) was added per well. The A450 nm values were read using an ELISA plate reader (SpectraMax 384plus, Molecular Device).
row,OD450 nm [OD450 nm],Binder
1,1.98,B1
2,1.83,B2
3,2.42,B3
4,2.48,B4
5,0.87,B5

# Molecular target: T3, monkey 4-1BB on CHOK1 cells (monkey)
# T3 construct: whole, on cells; also called CHOK1-c4-1BB
# Assay: FACS on CHOK1-c4-1BB cells, Alexa 488 secondary antibody, average fluorescence intensity
# Description: The pIRES plasmid carrying the full-length gene of monkey-derived […] (the preparation method is the same as the preparation method of the pCpC vector carrying the human-derived IgG Fc fragment (hFc) in “Preparation of immunogen A” of the step (1) in Example 1, in which the database accession number of the amino acid sequence of the extracellular region of monkey 4-1BB protein (Phe19-Thr239) is G7PSE7) was transfected into CHOK1 cell line to obtain CHOK1 stable transfected cell line containing monkey 4-1BB (herein referred to as CHOK1-c4-1BB stable cell line). The CHOK1-h4-1BB stable cell line and the CHOK1-c4-1BB stable cell line were expanded and cultivated to 90% confluence in T-75 cell culture flasks. The medium was exhausted, and washed twice with HBSS buffer (Hanks Balanced Salt Solution, purchased from Invitrogen), and then the cells were treated and collected with enzyme-free cell dissociation solution (Versene solution, purchased from Life Technology). The cells were washed twice with HBSS buffer, and after cell counting, the cells were diluted with HBSS buffer to 2×10⁶ cells per ml, and 1% goat serum blocking solution was added, the percentage being the mass percentage. It was incubated on ice for 30 minutes, and then washed twice with HBSS buffer by centrifugation. The collected cells were suspended in FACS buffer (HBSS containing 1% BSA, the percentage was the mass percentage) to 2×10⁶ cells/mL, and 100 μl per well was added to a 96-well FACS reaction plate. The purified 4-1BB antibody test sample obtained in Example 2 was added, 100 microliters per well and incubated on ice for 2 hours. […] It was washed three times with FACS buffer by centrifugation, and 100 μl of fixative [4% (v/v) paraformaldehyde] per well was added to suspend cells, and washed twice with FACS buffer after 10 minutes by centrifugation. The cells were suspended with 100 microliters of FACS buffer, and the results were detected and analyzed with FACS (FACS Calibur, purchased from BD).
row,EC50 (read off the curve) [µg/mL],Binder
1,~0.4,B6
2,~0.2,B7
3,~0.2,B8
4,~0.1,B3

# Molecular target: T1, mouse 4-1BB protein (extracellular …)
# Assay: ELISA, coated mouse 4-1BB; Ab 10 ug/ml
# Protocol: as §1
row,OD450 nm [OD450 nm],Binder
1,0.27,B9
2,0.3,B10
3,0.24,B3
4,0.31,B11

# Molecular target: T1, mouse 4-1BB protein (extracellular …)
# Assay: ELISA, coated mouse 4-1BB; Ab 0.0001 ug/ml
# Protocol: as §1
row,OD450 nm [OD450 nm],Binder
1,0.05,B9
2,0.05,B10
3,0.05,B3
4,0.05,B11

# Molecular target: T1, mouse 4-1BB protein (extracellular …)
# Assay: ELISA, coated mouse 4-1BB; Ab 0.4 ug/ml
# Protocol: as §1
row,OD450 nm [OD450 nm],Binder
1,0.12,B9
2,0.06,B10
3,0.28,B3
4,0.06,B11

# Molecular target: T2, monkey 4-1BB-his protein
# Assay: ELISA, coated monkey 4-1BB-his; Ab 0.0006 ug/ml
# Protocol: as §1
row,OD450 nm [OD450 nm],Binder
1,0.07,B1
2,0.07,B2
3,0.1,B3
4,0.11,B4
5,0.07,B5

# Molecular target: T1, mouse 4-1BB protein (extracellular …)
# Assay: ELISA, coated mouse 4-1BB; Ab 0.0032 ug/ml
# Protocol: as §1
row,OD450 nm [OD450 nm],Binder
1,0.14,B9
2,0.05,B10
3,0.2,B3
4,0.11,B11

# Molecular target: T2, monkey 4-1BB-his protein
# Assay: ELISA, coated monkey 4-1BB-his; Ab 0.0032 ug/ml
# Protocol: as §1
row,OD450 nm [OD450 nm],Binder
1,0.08,B1
2,0.07,B2
3,0.25,B3
4,0.24,B4
5,0.07,B5

# Molecular target: T2, monkey 4-1BB-his protein
# Assay: ELISA, coated monkey 4-1BB-his; Ab 0.08 ug/ml
# Protocol: as §1
row,OD450 nm [OD450 nm],Binder
1,0.55,B1
2,0.46,B2
3,2.03,B3
4,2.15,B4
5,0.08,B5

# Molecular target: T1, mouse 4-1BB protein (extracellular …)
# Assay: ELISA, coated mouse 4-1BB; Ab 2 ug/ml
# Protocol: as §1
row,OD450 nm [OD450 nm],Binder
1,0.11,B9
2,0.12,B10
3,0.1,B3
4,0.12,B11

# Molecular target: T1, mouse 4-1BB protein (extracellular …)
# Assay: ELISA, coated mouse 4-1BB; Ab 0.0006 ug/ml
# Protocol: as §1
row,OD450 nm [OD450 nm],Binder
1,0.05,B9
2,0.05,B10
3,0.05,B3
4,0.05,B11

# Molecular target: T1, mouse 4-1BB protein (extracellular …)
# Assay: ELISA: mouse 4-1BB protein coated at 1.0 µg/mL (target by Table 10; the legend paragraph 119 says monkey 4-1BB-hFc), antibody titrated, HRP secondary antibody, OD450
# Protocol: as §1
row,binding result,Binder
1,no binding (tested: 10 µg/ml),B9
2,no binding (tested: 10 µg/ml),B10
3,no binding (tested: 10 µg/ml),B3
4,no binding (tested: 10 µg/ml),B11

# Molecular target: T2, monkey 4-1BB-his protein
# Assay: ELISA, coated monkey 4-1BB-his; Ab 0.4 ug/ml
# Protocol: as §1
row,OD450 nm [OD450 nm],Binder
1,1.32,B1
2,1.18,B2
3,2.44,B3
4,2.54,B4
5,0.14,B5

# Molecular target: T2, monkey 4-1BB-his protein
# Assay: ELISA: monkey 4-1BB-his coated at 1.0 µg/mL, antibody titrated, HRP secondary antibody, OD450
# Protocol: as §1
row,EC50 (read off the curve) [µg/mL],Binder
1,~0.03,B3
2,~0.03,B4
